Test results: patent US20200055937A1 (REMD BIOTHERAPEUTICS, published 2020)
Each block holds one binder with its values, some of them ahead of it.

Legend:
CTLA4-Fc [1] = molecular target: T1, CTLA4-Fc (UniProt P16410 36-161, limits assumed); experiment: cell-based or functional assay
T1 sequence (looked up): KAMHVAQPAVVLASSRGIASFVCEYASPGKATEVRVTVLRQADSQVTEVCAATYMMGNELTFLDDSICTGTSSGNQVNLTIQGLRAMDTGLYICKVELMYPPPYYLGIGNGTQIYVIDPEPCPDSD

cyno Macaque CTLA-4 = molecular target: T2, cyno Macaque CTLA-4 (cyno Macaque, UniProt G7PL88 36-161); experiment: ELISA, cyno CTLA-4 binding
T2 construct: ELISA antigen; construct not described; also called CynoCTLA-4; cyno CTLA-4
T2 sequence: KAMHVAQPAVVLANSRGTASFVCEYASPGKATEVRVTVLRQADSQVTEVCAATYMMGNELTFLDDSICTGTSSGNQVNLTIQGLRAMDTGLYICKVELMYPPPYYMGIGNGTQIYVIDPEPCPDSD

human CTLA-4 [2] = molecular target: T3, human CTLA-4 (human, UniProt P16410 36-161, limits assumed); experiment: ELISA, human CTLA-4 binding
T3 construct: also called HuCTLA-4; human cytotoxic T lymphocyte antigen-4
T3 sequence: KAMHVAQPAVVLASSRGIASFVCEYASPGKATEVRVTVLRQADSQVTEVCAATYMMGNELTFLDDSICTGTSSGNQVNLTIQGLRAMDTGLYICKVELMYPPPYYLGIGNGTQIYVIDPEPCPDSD

murine CTLA-4 = molecular target: T4, murine CTLA-4 (murine, UniProt P09793 36-161, limits assumed); experiment: ELISA, murine CTLA-4 binding assay
T4 construct: ELISA antigen; construct not described; also called mouse CTLA-4

human CTLA-4 [3] = molecular target: T3, human CTLA-4; experiment: ligand blocking assay with purified proteins; competitor CD86
human CTLA-4 [4] = molecular target: T3, human CTLA-4; experiment: ratio of the IC50 for blocking CD80 to the IC50 for blocking CD86 on CTLA-4
human CTLA-4 [5] = molecular target: T3, human CTLA-4; experiment: ligand blocking assay with purified proteins; competitor CD80; CD80 as competing ligand, purified proteins
CTLA4-Fc [6] = molecular target: T1, CTLA4-Fc; experiment: cell-based or functional assay; remark: listed apart in the source
CTLA4-his [7] = molecular target: T5, CTLA4-his (UniProt P16410 36-161, limits assumed); experiment: SPR Biacore 8k, purified antibody captured on chip, CTLA4-his as analyte
T5 construct: construct not described; also called Ag CTLA4-his; Antigen CTLA4-his; not shown: his tag
T5 sequence (looked up): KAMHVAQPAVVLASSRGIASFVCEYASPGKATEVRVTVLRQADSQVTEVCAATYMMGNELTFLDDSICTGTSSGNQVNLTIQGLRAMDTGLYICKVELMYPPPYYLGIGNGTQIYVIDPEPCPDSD
Procedure: (§1) The affinities of purified antibody binding to CTLA4-his was determined using a Surface Plasmon Resonance (SPR) biosensor, Biacore 8k. Antibodies were immobilized on the sensor chip through capture method. Antigen CTLA4-his was used as the analyte. The data of dissociation (kd) and association (ka) rate constants were obtained using Biacore 8k evaluation software. The equilibrium dissociation constants (KD) were calculated from the ratio of kd over ka.

CTLA4-his [8] = molecular target: T5, CTLA4-his; experiment: SPR Biacore T200, antibody from supernatant captured by anti-human Fc, CTLA4-his injected
Procedure: (§2) Affinity ranking of the fifteen humanized antibodies was determined using a Surface Plasmon Resonance (SPR) biosensor, Biacore T200 (GE Healthcare). Anti-human Fc gamma specific antibody was immobilized onto the sensor chip using amine coupling method. […] After equilibration, Ag CTLA4-his was injected for 300 seconds (association phase) followed by the injection of running buffer for 600s (dissociation phase). Responses of reference flow cell (flow cell 1) were subtracted from those of humanized antibodies flow cells during each cycle. The surface was regenerated before the injection of other humanized antibodies. The process was repeated until all antibodies are analyzed. The off-rates of humanized antibodies were obtained from fitting the experimental data locally to 1:1 interaction model using the Biacore 8K evaluation software. The antibodies were ranked by their dissociation rate constants (off-rates, kd).

CTLA4-his [9] = molecular target: T5, CTLA4-his; experiment: SPR Biacore T200, antibody from supernatant captured by anti-human Fc, CTLA4-his injected; supernatant antibody, off-rate ranking, 600 s dissociation
Procedure: as §2

human CTLA-4 [10] = molecular target: T3, human CTLA-4; experiment: ligand blocking assay with purified proteins; competitor CD80
CTLA4-Fc [11] = molecular target: T1, CTLA4-Fc; experiment: SPR Biacore T200, CTLA4-Fc amine-coupled, antibody as analyte
Procedure: (§3) Antigen CTLA4-Fc was immobilized on the sensor chip through amine coupling method. Antibody was used as the analyte. The data of dissociation (kd) and association (kₐ) rate constants were obtained using Biacore T200 evaluation software. The apparent equilibrium dissociation constants (KD) were calculated from the ratio of kd over kₐ.

CTLA4-Fc [12] = molecular target: T1, CTLA4-Fc; experiment: SPR Biacore T200, CTLA4-Fc amine-coupled, antibody as analyte; apparent KD
Procedure: as §3

CTLA4-his [13] = molecular target: T5, CTLA4-his; experiment: SPR Biacore 8k, purified antibody captured on chip, CTLA4-his as analyte (as the text says; same values as Table 5)
CTLA4-his [14] = molecular target: T5, CTLA4-his; experiment: SPR Biacore 8k, purified antibody captured on chip, CTLA4-his as analyte; purified antibody, Biacore 8k
Procedure: as §1

IC50 (nM), IL-2 secreted by Jurkat cells co-cultured with CHO/CD80 cells, Experiment 1 (CTLA4-Fc [1]): 11 nM
IC50 (nM), IL-2 secreted by Jurkat cells co-cultured with CHO/CD80 cells, Experiment 2 (CTLA4-Fc [1]): 13.2 nM
EC50 (cyno Macaque CTLA-4): 24 pM
EC50 (human CTLA-4 [2]): 34 pM
binding result (murine CTLA-4): no binding
IC50 (human CTLA-4 [10]): 579 pM
IC50 (human CTLA-4 [3]): 287 pM
koff (CTLA4-Fc [11]): 0.000551 s⁻¹
kon (CTLA4-Fc [11]): 573000 M⁻¹ s⁻¹
Kd (CTLA4-Fc [12]): 963 pM
CD80/CD86 Blocking Ratio (human CTLA-4 [4]): 2.01
Kd (CTLA4-his [13]): 963 pM
koff (CTLA4-his [13]): 0.000551 s⁻¹
kon (CTLA4-his [13]): 573000 M⁻¹ s⁻¹
B6: MAb A4 (13F10D7) (antibody, V domains shown)
VH: EVQLRQSGPELVKPGTSVKISCKASGYKFTDHFINWVKQNHGKSLEWIGDINPNNGGTNSNQKFEGKATLTVDKSSSTAYMELRSLTSEDSAVYYCARLRREYFYAMDYWGQGTSVTVSS
VL: DIVMTQAAFSNPVTLGTSASISCRSSKSLLHSNGITYLYWYLQKPGQSPQLLIYQMSNLASGVPDRFSSSGSGTDFTLRISRVEAEDVGVYYCAQNLELPLTFGAGTKLELK
notes: also called Murine MAb A4; murine antibody A4

koff (CTLA4-Fc [11]): 5.09e-05 s⁻¹
kon (CTLA4-Fc [11]): 621000 M⁻¹ s⁻¹
Kd (CTLA4-his [7]): 13.1 pM
kon (CTLA4-his [7]): 765000 M⁻¹ s⁻¹
Kd (CTLA4-Fc [12]): 82 pM
Kd (CTLA4-his [8]): 60.2 pM
koff (CTLA4-his [8]): 2.59e-05 s⁻¹
kon (CTLA4-his [8]): 430000 M⁻¹ s⁻¹
koff (CTLA4-his [14]): ≤ 1e-05 s⁻¹
B7: chimeric IgG (antibody, V domains shown)
VH: EVQLRQSGPELVKPGTSVKISCKASGYKFTDHFINWVKQNHGKSLEWIGDINPNNGGTNSNQKFEGKATLTVDKSSSTAYMELRSLTSEDSAVYYCARLRREYFYAMDYWGQGTSVTVSS
VL: DIVMTQAAFSNPVTLGTSASISCRSSKSLLHSNGITYLYWYLQKPGQSPQLLIYQMSNLASGVPDRFSSSGSGTDFTLRISRVEAEDVGVYYCAQNLELPLTFGAGTKLELKR
notes: Variable domains of MAb A4 on human IgG1 and kappa, expressed in HEK293; also called murine-human chimeric antibody derived from murine antibody A4

Continued, binder first:

B1: MAb A1 (16A9E9) (antibody, V domains shown)
VH: DVQLQESGPGLVKPSQSLSLTCSVTGDSITSGYYWNWIRQFPGNKLEWMGYISYDGINNYYPSLENRISITRDTSRNQFFLKLNSVTTEDTATYYCAREVVTPGVEVPAWYFDVWGTGTTVTVSS
VL: DIVLTQSPTSLTVSLGQRAIISCKASQSVSFAGTGLMHWYQQKPGQQPKLLIYRASNLEAGVPTRFSGSGSRTDFTLNIHPVEEDDAATYYCQQSREYPWTFGGGTTLEIN
notes: also called murine antibody A1
IC50 (nM), IL-2 secreted by Jurkat cells co-cultured with CHO/CD80 cells, Experiment 1 (CTLA4-Fc [1]): 19.3 nM
IC50 (nM), IL-2 secreted by Jurkat cells co-cultured with CHO/CD80 cells, Experiment 2 (CTLA4-Fc [1]): 18.5 nM
EC50 (cyno Macaque CTLA-4): 10 pM
EC50 (human CTLA-4 [2]): 58 pM
binding result (murine CTLA-4): no binding
IC50 (human CTLA-4 [3]): 365 pM
CD80/CD86 Blocking Ratio (human CTLA-4 [4]): 6.49
IC50 (human CTLA-4 [5]): 2370 pM

B2: Humanized Ab 11 (VH4 + VL2) (antibody, human IgG1, kappa)
heavy: not shown
light: DIVMTQSPLSLPVTPGEPASISCRSSKSLLHSNGITYLYWYLQKPGQSPQLLIYQMSNLASGVPDRFSSSGSGTDFTLKISRVEAEDVGVYYCAQNLELPLTFGGGTKVEIKRTVAAPSVFIFPPSDEQLKSGTASVVCLLNNFYPREAKVQWKVDNALQSGNSQESVTEQDSKDSTYSLSSTLTLSKADYEKHKVYACEVTHQGLSSPVTKSFNRGEC
notes: Humanized IgG1 derived from MAb A4
IC50 (nM), Jurkat cell activation assay of Example 2 (IL-2) (CTLA4-Fc [6]): 8.7 nM
Kd (CTLA4-his [7]): 339 pM
koff (CTLA4-his [7]): 0.000307 s⁻¹
kon (CTLA4-his [7]): 904000 M⁻¹ s⁻¹
Kd (CTLA4-his [8]): 684 pM
koff (CTLA4-his [8]): 0.000305 s⁻¹
kon (CTLA4-his [8]): 446000 M⁻¹ s⁻¹

B3: Humanized Ab 14 (VH6 + VL3) (antibody, human IgG1, kappa, V domains shown)
VH: QVQLVQSGAEVKKPGASVKVSCKASGYKFTDHFINWVKQAPGQGLEWIGDINPNNGGTNSNQKFEGKATLTVDKSISTAYMELRRLRSDDTAVYYCARLRREYFYAMDYWGQGTLVTVSS
VL: DIVMTQSPLSLPVTPGEPASISCRSSKSLLHSNGITYLYWYLQKPGQSPQLLIYQMSNLASGVPDRFSSSGSGTDFTLKISRVEAEDVGVYYCAQNLELPLTFGGGTKLEIKR
notes: as for B2
IC50 (nM), Jurkat cell activation assay of Example 2 (IL-2) (CTLA4-Fc [6]): 3.1 nM
Kd (CTLA4-his [7]): 24.8 pM
koff (CTLA4-his [7]): 1.99e-05 s⁻¹
kon (CTLA4-his [7]): 802000 M⁻¹ s⁻¹
Kd (CTLA4-his [8]): ≤ 45.2 pM
koff (CTLA4-his [8]): ≤ 1e-05 s⁻¹
kon (CTLA4-his [8]): 221000 M⁻¹ s⁻¹

B4: Humanized Ab 15 (VH7 + VL3) (antibody, human IgG1, kappa, V domains shown)
VH: QVQLVQSGAEVVKPGASVKISCKASGYKFTDHFINWVKQNPGQGLEWIGDINPNNGGTNSNQKFEGKATLTVDKSISTAYMELRRLRSDDTAVYYCARLRREYFYAMDYWGQGTLVTVSS
VL: DIVMTQSPLSLPVTPGEPASISCRSSKSLLHSNGITYLYWYLQKPGQSPQLLIYQMSNLASGVPDRFSSSGSGTDFTLKISRVEAEDVGVYYCAQNLELPLTFGGGTKLEIKR
notes: as for B2
IC50 (nM), Jurkat cell activation assay of Example 2 (IL-2) (CTLA4-Fc [6]): 3.1 nM
Kd (CTLA4-his [7]): 14.2 pM
koff (CTLA4-his [7]): 1.03e-05 s⁻¹
kon (CTLA4-his [7]): 727000 M⁻¹ s⁻¹
Kd (CTLA4-his [8]): ≤ 47.2 pM
kon (CTLA4-his [8]): 212000 M⁻¹ s⁻¹
koff (CTLA4-his [9]): ≤ 1e-05 s⁻¹

B5: MAb A3 (32G12D2) (antibody, V domains shown)
VH: QVQLQQPGAELVRPGSSVKLSCKASGYTFTSYWMHWVKQRPIQGLEWIGNIDPSDSETHYNQNFKDKATLTVDKSSSTAYLQLSSLTSEDSAVYYCARRYTSSSFDYWGQGTTLTVSS
VL: DIQMTQTTSSLSASLGDRVTVSCRASQDIRNYLNWYQQKPDGTVKLLIYFTSKLHSGVPSRFSGSGSGTDYFLAISNLEQEDIATYFCQQGNTLPYTFGGGTKLEIK
notes: also called murine antibody A3
IC50 (nM), IL-2 secreted by Jurkat cells co-cultured with CHO/CD80 cells, Experiment 1 (CTLA4-Fc [1]): 22.7 nM
IC50 (nM), IL-2 secreted by Jurkat cells co-cultured with CHO/CD80 cells, Experiment 2 (CTLA4-Fc [1]): 14.9 nM
EC50 (cyno Macaque CTLA-4): 54 pM
EC50 (human CTLA-4 [2]): 26 pM
binding result (murine CTLA-4): no binding
IC50 (human CTLA-4 [10]): 822 pM
IC50 (human CTLA-4 [3]): 369 pM
CD80/CD86 Blocking Ratio (human CTLA-4 [4]): 2.23
